This assay has as its target human claudin-1 (human) (UniProt O95832). Description: confocal fluorescence on SW620 cells with control siRNA versus CLDN1 siRNA; non-significant.

The results in this text go back to patent US20180052165A1.

Chain of human claudin-1 (human) (O95832 whole entry): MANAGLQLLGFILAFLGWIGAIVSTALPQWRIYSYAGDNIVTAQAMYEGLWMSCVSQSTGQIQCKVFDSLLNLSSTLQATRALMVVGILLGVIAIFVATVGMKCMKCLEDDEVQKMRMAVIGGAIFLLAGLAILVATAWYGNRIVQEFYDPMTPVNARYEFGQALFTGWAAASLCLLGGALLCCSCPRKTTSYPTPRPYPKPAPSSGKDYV

For “SPT*-Cy5.5 (control scrambled peptide SPTPSSR labeled with Cy5.5 via the GGGSK linker)”, the fold-change of signal, siCL versus siCLDN1 cells worked out at 0.8 fold.
